{"source": "paper PMC3405546", "about": "(Circulation Research, 2012)", "binders": {"B1": {"name": "Cx43^CTMK4D (Cx43 C-terminus, phospho-mimetic Ser>Asp), purified (domain or fragment, rat, UniProt P08050 236-382, looked up)", "chain": "VKDRVKGRSDPYHATTGPLDPSKDCGDPKYAYFNGCSSPTAPLDPMDPPGYKLVTGDRNNSSCRNYNKQASEQNWANYSAEQNRMGQAGSTISNSHAQPFDFPDDNQNAKKVAAGHELQPLAIVDQRPSSRASSRASSRPRPDDLEI"}}, "key": {"cross-linking": {"biological_target": "the molecule itself", "assay": "cross-linking"}, "[1]": {"biological_target": "glutathione s-transferase (GST) tagged cyclin E (human, UniProt P24864 1-410)", "sequence (P24864 whole entry)": "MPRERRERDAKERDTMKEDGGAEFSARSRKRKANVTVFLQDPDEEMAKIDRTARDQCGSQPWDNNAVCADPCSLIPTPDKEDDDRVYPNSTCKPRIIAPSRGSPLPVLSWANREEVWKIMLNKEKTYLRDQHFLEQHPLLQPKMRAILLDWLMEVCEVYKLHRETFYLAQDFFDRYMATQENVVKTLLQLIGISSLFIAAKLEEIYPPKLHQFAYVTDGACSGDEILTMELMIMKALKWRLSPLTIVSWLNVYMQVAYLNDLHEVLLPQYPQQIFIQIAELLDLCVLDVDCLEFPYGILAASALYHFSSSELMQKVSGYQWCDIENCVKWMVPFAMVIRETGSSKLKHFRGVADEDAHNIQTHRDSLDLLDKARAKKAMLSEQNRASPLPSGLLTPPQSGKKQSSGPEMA", "assay": "cross-linking"}}, "data": [{"binder": "B1", "values": [{"measurement": "stoichiometry N", "setting": "cross-linking", "value": 2}, {"measurement": "stoichiometry N", "setting": "[1]", "value": 2, "unit": "Cx43^CTMK4D per cyclin E"}]}]}
